{"source": "paper PMC2572732", "about": "“Structural Coupling of SH2-Kinase Domains Links Fes and Abl Substrate Recognition and Kinase Activation” (Cell, 2008)", "key": {"[1]": {"biological_target": "T1, human Fes SH2-kinase unit (residues I448 to the C terminus), autophosphorylated on Y713 (human, UniProt P07332-1 448-822, phosphotyrosine at 713)", "T1 construct": "Fes tyrosine kinase, human, NP_001996; Crystallised with staurosporine; also called pY713-Fes; phosphorylated Fes; source: E. coli BL21(DE3)-R3, coexpressed with YopH, purified; autophosphorylated in vitro, purified by gel filtration", "T1 sequence (P07332 448-822)": "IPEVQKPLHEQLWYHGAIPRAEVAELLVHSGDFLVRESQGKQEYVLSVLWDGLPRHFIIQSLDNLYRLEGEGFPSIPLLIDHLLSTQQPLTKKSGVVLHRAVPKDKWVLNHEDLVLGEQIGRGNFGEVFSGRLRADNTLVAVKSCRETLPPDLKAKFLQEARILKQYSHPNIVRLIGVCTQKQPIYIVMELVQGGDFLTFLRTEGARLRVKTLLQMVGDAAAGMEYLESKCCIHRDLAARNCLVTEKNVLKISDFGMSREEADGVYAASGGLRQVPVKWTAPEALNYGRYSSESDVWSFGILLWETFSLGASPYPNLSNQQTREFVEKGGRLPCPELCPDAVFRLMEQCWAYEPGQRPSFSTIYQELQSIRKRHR", "test": "crystal structure; sitting drops; Fes SH2-kinase with staurosporine (1 mM) and peptide Ac-IYESL (250-300 uM); form II from 20% PEG 3350, 0.1 M sodium malate; form III from 30% mPEG 2000, 0.15 M NaBr", "conditions": "both partners purified"}, "[2]": {"biological_target": "T2, human Fes SH2-kinase unit (residues I448 to the C terminus), unphosphorylated (human, UniProt P07332-1 448-822)", "T2 construct": "Fes tyrosine kinase, human, NP_001996; linker N terminal to the SH2 domain, SH2 domain and C-terminal kinase domain; residues I448 to the C terminus; Crystallised with staurosporine; also called SH2-kinase polypeptide; unphosphorylated Fes; source: E. coli BL21(DE3)-R3, coexpressed with YopH tyrosine phosphatase, purified", "T2 sequence (P07332 448-822)": "as above", "test": "crystal structure; sitting drops; Fes SH2-kinase with staurosporine (1 mM) and peptide Ac-IYESL (250-300 uM); form II from 20% PEG 3350, 0.1 M sodium malate; form III from 30% mPEG 2000, 0.15 M NaBr", "conditions": "both partners purified"}}, "note": "No end group written: not given here.", "data": [{"binder": "Ac-IYESL (consensus substrate peptide of the Fes kinase, derived from peptide library and array screens; also called consensus peptide; source: synthetic peptide)", "note": "[Fes kinase consensus substrate peptide Ac-IYESL]", "values": [{"measurement": "binding result", "setting": "[1]", "result": "binds"}, {"measurement": "binding result", "setting": "[2]", "result": "binds"}]}]}
